Data on 39 variants can be found in the RNAGym collection of RNA variant scans (doi:10.7554/elife.80360).

First the molecules themselves.
B1: CPEB3 Ribozyme (parent)
chain: GGGGGCCACAGCAGAAGCGUUCACGUCGCGGCCCCUGUCAGAUUCUGGUGAAUCUGCGAAUUCUGCUGU

The variants in this data set derive from B1. Description: self-cleavage, relative activity (ratio to wild type); higher = more cleavage; co-transcriptional.
As for GGGGGCCACAGCAGAAGCGUUCACGUCGGGGCCCCUGUCAGAUUCUGGUGAAUCUGCGAAUUCUGCGGU [C29G U67G], the self-cleavage was found to be 0.482. On to GGGGGCCACAGCAGAAGCGUUCACGUCGCAGCCCCUGUCAGAUUCUGGUGAAUGUGCGAAUUCUGCUGU [G30A C54G], for which the self-cleavage stood at 0.333. On to GGGGGCCACAGCAGAAGCGUUCACGUCGCAGCCCCCGUCAGAUUCUGGUGAAUCUGCGAAUUCUGCUGU [G30A U36C], for which the self-cleavage was determined as 0.449. As for GGGGGCCACAGCAGAAGCGUUCACGUCGUGGCCCCUGUCAGAGUCUGGUGAAUCUGCGAAUUCUGCUGU [C29U U43G], the self-cleavage is 0.168. In the case of GGGGGCCACAGCAGAAGCGUUCACGUCGUGGCCCCUGUCAGAAUCUGGUGAAUCUGCGAAUUCUGCUGU [C29U U43A] it was 0.171. With GGGGGCCACAGCAGAAGCGUUCACGUCGUGGCCCCUGUCAGAUUCUGGUGAAUCUGCGAAUUCAGCUGU [C29U U64A] the figure was 0.171; with GGGGGCCACAGCAGAAGCGUUCACGUCGUGGCCCCUGUCAGAUUCUGGUGAAUCUGCGAAUUCGGCUGU [C29U U64G], 0.206. In the case of GGGGGCCACAGCAGAAGCGUUCACGUCGUGGCCCCUGUCAUAUUCUGGUGAAUCUGCGAAUUCUGCUGU [C29U G41U] it was 0.191; in that of GGGGGCCACAGCAGAAGCGUUCACGUCGUAGCCCCUGUCAGAUUCUGGUGAAUCUGCGAAUUCUGCUGU [C29U G30A], 0.283; in that of GGGGGCCACAGCAGAAGCGUUCACGUCGCAGCCACUGUCAGAUUCUGGUGAAUCUGCGAAUUCUGCUGU [G30A C34A], 0.286.

Regarding GGGGGCCACAGCAGAAGCGUUCACGUCGCAGCCGCUGUCAGAUUCUGGUGAAUCUGCGAAUUCUGCUGU [G30A C34G], the self-cleavage is 0.278. GGGGGCCACAGCAGAAGCGUUCACGUCGCAGCCCCUGUCAGAUUCUGAUGAAUCUGCGAAUUCUGCUGU [G30A G48A]: the self-cleavage came out at 0.951. Take GGGGGCCACAGCAGAAGCGUUCACGUCGCAGCCCCUGUCAGAUUCUGGUUAAUCUGCGAAUUCUGCUGU [G30A G50U]: the self-cleavage amounted to 0.856. As for GGGGGCCACAGCAGAAGCGUUCACGUCGUGGCCCCUGUCAGAUUCUGGUGAAUCUGCCAAUUCUGCUGU [C29U G58C], the self-cleavage was 0.398. GGGGGCCACAGCAGAAGCGUUCACGUCGCAGCCCCUUUCAGAUUCUGGUGAAUCUGCGAAUUCUGCUGU [G30A G37U]: the self-cleavage is 0.196. For GGGGGCCACAGCAGAAGCGUUCACGUCGCAGCCCCUCUCAGAUUCUGGUGAAUCUGCGAAUUCUGCUGU [G30A G37C], the self-cleavage came out at 0.19. As for GGGGGCCACAGCAGAAGCGUUCACGUCGCAGCCCCUAUCAGAUUCUGGUGAAUCUGCGAAUUCUGCUGU [G30A G37A], the self-cleavage was found to be 0.23. GGGGGCCACAGCAGAAGCGUUCACGUCGUGGCCCCUGUCAGAUACUGGUGAAUCUGCGAAUUCUGCUGU [C29U U44A]: the self-cleavage turned out to be 0.26. Turning to GGGGGCCACAGCAGAAGCGUUCACGUCGUGGCCCCUGUCAGAUUCUGGUGUAUCUGCGAAUUCUGCUGU [C29U A51U], the self-cleavage was 0.432. In the case of GGGGGCCACAGCAGAAGCGUUCACGUCGUGGCCCCUGUCAGAUUCUGGUGCAUCUGCGAAUUCUGCUGU [C29U A51C] it was 0.356; in that of GGGGGCCACAGCAGAAGCGUUCACGUCGCAGCCCCUGUCAUAUUCUGGUGAAUCUGCGAAUUCUGCUGU [G30A G41U], 0.341. On to GGGGGCCACAGCAGAAGCGUUCACGUCGUGGCCCCUGUCAGAUUCUGGUGAAUCUCCGAAUUCUGCUGU [C29U G56C], for which the self-cleavage was 0.26. In the case of GGGGGCCACAGCAGAAGCGUUCACGUCGUGGCCCCUGUCAGAUUCUGGUGAAUCUGCGAAUUAUGCUGU [C29U C63A] it was 0.176.

In the case of GGGGGCCACAGCAGAAGCGUUCACGUCGUGGCCCCUGUCAGAUUCUGGUGAAUCUGCGAAUUGUGCUGU [C29U C63G], the self-cleavage was determined as 0.198.

For GGGGGCCACAGCAGAAGCGUUCACGUCGUGGCCCCUGUCAGAUUCUGCUGAAUCUGCGAAUUCUGCUGU [C29U G48C], the self-cleavage came out at 0.61. In the case of GGGGGCCACAGCAGAAGCGUUCACGUCGCAGCCCCUGUCAGAUUCUGGUGAAUCUGCGAAUUCUGCUUU [G30A G68U], the self-cleavage was found to be 1.

As for GGGGGCCACAGCAGAAGCGUUCACGUCGCAGCCCCUGUCAGAUUCUGGUGAAUCUGCGAAUUCUGCUCU [G30A G68C], the self-cleavage stood at 1.01. For the variant GGGGGCCACAGCAGAAGCGUUCACGUCGUGGCCCCUGUCAGAUUCUGGUGAAUAUGCGAAUUCUGCUGU [C29U C54A], the self-cleavage is 0.169.

On to GGGGGCCACAGCAGAAGCGUUCACGUCGUGGCCCCGGUCAGAUUCUGGUGAAUCUGCGAAUUCUGCUGU [C29U U36G], for which the self-cleavage stood at 0.147.

For the variant GGGGGCCACAGCAGAAGCGUUCACGUCGUGGCCCCCGUCAGAUUCUGGUGAAUCUGCGAAUUCUGCUGU [C29U U36C], the self-cleavage amounted to 0.244. With GGGGGCCACAGCAGAAGCGUUCACGUCGUGGCCCCUGUCAGAUUCUGGUGAACCUGCGAAUUCUGCUGU [C29U U53C], the self-cleavage came out at 0.143. Regarding GGGGGCCACAGCAGAAGCGUUCACGUCGUGGCCCCUGUCAGAUUCUGGUGAAACUGCGAAUUCUGCUGU [C29U U53A], the self-cleavage came out at 0.267. As for GGGGGCCACAGCAGAAGCGUUCACGUCGUGGCCCCUGUCAGAUUCUGGUGAAGCUGCGAAUUCUGCUGU [C29U U53G], the self-cleavage stood at 0.264.

For the variant GGGGGCCACAGCAGAAGCGUUCACGUCGUGCCCCCUGUCAGAUUCUGGUGAAUCUGCGAAUUCUGCUGU [C29U G31C], the self-cleavage is 0.158. As for GGGGGCCACAGCAGAAGCGUUCACGUCGCAGCCCCUGUCAGAUUCUGGUGAAUCUGCGAUUUCUGCUGU [G30A A60U], the self-cleavage was found to be 0.367. As to GGGGGCCACAGCAGAAGCGUUCACGUCGCAGCCCCUGUCAGAUUCUGGUGAAUCUGCGAGUUCUGCUGU [G30A A60G], the self-cleavage came out at 0.395. For GGGGGCCACAGCAGAAGCGUUCACGUCGCAGCCCCUGUCAGAUUCUGGUGAAUCUGCGAAUUCUGAUGU [G30A C66A], the self-cleavage was determined as 0.559. With GGGGGCCACAGCAGAAGCGUUCACGUCGUGGCCCCUGUGAGAUUCUGGUGAAUCUGCGAAUUCUGCUGU [C29U C39G], the self-cleavage came to 0.163. For the variant GGGGGCCACAGCAGAAGCGUUCACGUCGUGGCCCCUGUCAGAUUCUGGUGAAUCUGCGAACUCUGCUGU [C29U U61C], the self-cleavage turned out to be 0.183.
